{"source": "paper PMC9888390", "about": "(2023)", "binders": {"B1": {"name": "BMPC-23 recombinant mouse IgG (antibody, V domains shown)", "VH": "QVQLQQSGPELVKPGASVKLSCKASGYSFTTYDINWVKERPGQGLEWIGWIYPREGSTNYNEKFRGKATLTADTSSSTAYMELHSLTSEDSAVYFCATYGSSRYYTMDYWGQGTSVTVSS", "VL": "not shown"}}, "target": "Recombinant HSV-1 glycoprotein B, soluble ectodomain (HSV-1)", "test": "Luminex binding assay"}
{"binder": "B1", "values": [{"measurement": "EC50", "result": 3.5, "unit": "ng/mL"}]}
